1 molecule from doi:10.1101/856021 (2019) can be followed below.

In this assay the target is Jil-1 peptide 984-1004 F989A (Drosophila, UniProt Q9V3I5 984-994, F989A). Nature of the assay: ITC. For orientation: Isothermal titration calorimetry measures the heat released or taken up as one component is titrated into another.

B1: dP75 IBD-containing C-terminus region (residues 209-445) (domain or fragment)
chain: AAVTPIQKRSRPVNNIRNEMLMVYMPTAKCLGIVINYKKPESFESAAAEEAWMENARKEALELKLKLESGQINPESMPDRIVVEPTRSEIPKQEALRFIEELIEHEDALFMERDFIQLSQQLRECLGLRRANVGKCLEILEQFKEVEFTKLMLLRNPECVDIMRRLRRYVGNLELWKMDLSDEVEFKERAQTIRKVSSGIYDGFKSLFNPEPESEDNFWIDFCEKVKIYKTYTKNIN
Usually Kd stands for the concentration at which binding is half-saturated. With B1, the Kd came out at 122 µM.
